Data as given in publication PMC5902653 (The Analyst, 2018).
Like-named read-outs stand apart in the source and are kept apart here. *: point of attachment. FITC = O=C1OC2(c3ccc(O)cc3Oc3cc(O)ccc32)c2ccc(NC(=S)*)cc21; βAla = NCCC(=O)O

B1: c-Myb peptide, FITC labeled (peptide)
peptide: {FITC-βAla}-KEKRIKELELLLMSTENELKGQQALW-NH2
SMILES: CC[C@H](C)[C@H](NC(=O)[C@H](CCCNC(=N)N)NC(=O)[C@H](CCCCN)NC(=O)[C@H](CCC(=O)O)NC(=O)[C@H](CCCCN)NC(=O)CCNC(=S)Nc1ccc2c(c1)C(=O)OC21c2ccc(O)cc2Oc2cc(O)ccc21)C(=O)N[C@@H](CCCCN)C(=O)N[C@@H](CCC(=O)O)C(=O)N[C@@H](CC(C)C)C(=O)N[C@@H](CCC(=O)O)C(=O)N[C@@H](CC(C)C)C(=O)N[C@@H](CC(C)C)C(=O)N[C@@H](CC(C)C)C(=O)N[C@@H](CCSC)C(=O)N[C@@H](CO)C(=O)N[C@H](C(=O)N[C@@H](CCC(=O)O)C(=O)N[C@@H](CC(N)=O)C(=O)N[C@@H](CCC(=O)O)C(=O)N[C@@H](CC(C)C)C(=O)N[C@@H](CCCCN)C(=O)NCC(=O)N[C@@H](CCC(N)=O)C(=O)N[C@@H](CCC(N)=O)C(=O)N[C@@H](C)C(=O)N[C@@H](CC(C)C)C(=O)N[C@@H](Cc1c[nH]c2ccccc12)C(N)=O)[C@@H](C)O
B2: E2A17 peptide, FITC labeled (peptide)
peptide: {FITC-βAla}-GTDKELSDLLDFSAMFS-NH2
SMILES: CSCC[C@H](NC(=O)[C@H](C)NC(=O)[C@H](CO)NC(=O)[C@H](Cc1ccccc1)NC(=O)[C@H](CC(=O)O)NC(=O)[C@H](CC(C)C)NC(=O)[C@H](CC(C)C)NC(=O)[C@H](CC(=O)O)NC(=O)[C@H](CO)NC(=O)[C@H](CC(C)C)NC(=O)[C@H](CCC(=O)O)NC(=O)[C@H](CCCCN)NC(=O)[C@H](CC(=O)O)NC(=O)[C@@H](NC(=O)CNC(=O)CCNC(=S)Nc1ccc2c(c1)C(=O)OC21c2ccc(O)cc2Oc2cc(O)ccc21)[C@@H](C)O)C(=O)N[C@@H](Cc1ccccc1)C(=O)N[C@@H](CO)C(N)=O

Columns and labels:
Test in all cases: cross-linking
[1] = molecular target: heat shock protein 70 (Hsp70), labeled with AlexaFluor488 (UniProt P0DMV8)
[2] = molecular target: T1, KIX domain of mouse CREB-binding protein (mouse, UniProt P45481 586-665)
T1 sequence (P45481 586-665): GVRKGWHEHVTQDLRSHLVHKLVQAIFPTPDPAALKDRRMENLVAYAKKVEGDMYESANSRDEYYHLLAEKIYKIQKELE

[3] = molecular target: T1, KIX domain of mouse CREB-binding protein; remark: listed apart in the source

| Kd [1] [nM] | other results | Molecule |
| --- | --- | --- |
| 26 | – | bcl2 association athanogene 3 (Bag3) (from UniProt O95817 1-575) (natural protein) |
| 1200 | – | heat shock protein 70 (Hsp70), labeled with AlexaFluor488 (from UniProt P0DMV8 1-641) (natural protein) |
| – | Kd [2]: 3100 ± 500 nM | B1 |
| – | Kd [3]: 1100 ± 200 nM | B2 |
